# Test results from doi:10.1101/2020.01.07.896506 (bioRxiv, 2020).
# B1: recombinant GRXS17 (glutaredoxin GRXS17, Arabidopsis thaliana) (natural protein, UniProt Q9ZPH2 1-488, looked up)
# chain: MSGTVKDIVSKAELDNLRQSGAPVVLHFWASWCDASKQMDQVFSHLATDFPRAHFFRVEAEEHPEISEAYSVAAVPYFVFFKDGKTVDTLEGADPSSLANKVGKVAGSSTSAEPAAPASLGLAAGPTILETVKENAKASLQDRAQPVSTADALKSRLEKLTNSHPVMLFMKGIPEEPRCGFSRKVVDILKEVNVDFGSFDILSDNEVREGLKKFSNWPTFPQLYCNGELLGGADIAIAMHESGELKDAFKDLGITTVGSKESQDEAGKGGGVSSGNTGLSETLRARLEGLVNSKPVMLFMKGRPEEPKCGFSGKVVEILNQEKIEFGSFDILLDDEVRQGLKVYSNWSSYPQLYVKGELMGGSDIVLEMQKSGELKKVLTEKGITGEQSLEDRLKALINSSEVMLFMKGSPDEPKCGFSSKVVKALRGENVSFGSFDILTDEEVRQGIKNFSNWPTFPQLYYKGELIGGCDIIMELSESGDLKATLSE
# B2: recombinant GRXS17-C33S (natural protein, Arabidopsis thaliana, UniProt Q9ZPH2 1-488, looked up)
# chain: MSGTVKDIVSKAELDNLRQSGAPVVLHFWASWSDASKQMDQVFSHLATDFPRAHFFRVEAEEHPEISEAYSVAAVPYFVFFKDGKTVDTLEGADPSSLANKVGKVAGSSTSAEPAAPASLGLAAGPTILETVKENAKASLQDRAQPVSTADALKSRLEKLTNSHPVMLFMKGIPEEPRCGFSRKVVDILKEVNVDFGSFDILSDNEVREGLKKFSNWPTFPQLYCNGELLGGADIAIAMHESGELKDAFKDLGITTVGSKESQDEAGKGGGVSSGNTGLSETLRARLEGLVNSKPVMLFMKGRPEEPKCGFSGKVVEILNQEKIEFGSFDILLDDEVRQGLKVYSNWSSYPQLYVKGELMGGSDIVLEMQKSGELKKVLTEKGITGEQSLEDRLKALINSSEVMLFMKGSPDEPKCGFSSKVVKALRGENVSFGSFDILTDEEVRQGIKNFSNWPTFPQLYYKGELIGGCDIIMELSESGDLKATLSE
# B3: recombinant GRXS17-C33S/C179S/C309S/C416S (natural protein, Arabidopsis thaliana, UniProt Q9ZPH2 1-488, looked up)
# chain: MSGTVKDIVSKAELDNLRQSGAPVVLHFWASWSDASKQMDQVFSHLATDFPRAHFFRVEAEEHPEISEAYSVAAVPYFVFFKDGKTVDTLEGADPSSLANKVGKVAGSSTSAEPAAPASLGLAAGPTILETVKENAKASLQDRAQPVSTADALKSRLEKLTNSHPVMLFMKGIPEEPRSGFSRKVVDILKEVNVDFGSFDILSDNEVREGLKKFSNWPTFPQLYCNGELLGGADIAIAMHESGELKDAFKDLGITTVGSKESQDEAGKGGGVSSGNTGLSETLRARLEGLVNSKPVMLFMKGRPEEPKSGFSGKVVEILNQEKIEFGSFDILLDDEVRQGLKVYSNWSSYPQLYVKGELMGGSDIVLEMQKSGELKKVLTEKGITGEQSLEDRLKALINSSEVMLFMKGSPDEPKSGFSSKVVKALRGENVSFGSFDILTDEEVRQGIKNFSNWPTFPQLYYKGELIGGCDIIMELSESGDLKATLSE
# Key:
# native gel or EMSA = biological target: the molecule itself; assay: native gel or EMSA
# SEC = biological target: the molecule itself; assay: SEC
protein,measurement,setting,value
B1,stoichiometry N,native gel or EMSA,2
B2,binding result,SEC,binds
B3,stoichiometry N,SEC,2
